# Data reported in US20220220224A1 (Hoffmann-La Roche, published 2022).
# B1: 14E4 IgG (antibody, V domains shown)
# VH: not shown
# VL: EIVLTQSPGTLSLSPGERATLSCRASQSVSSSYLAWYQQKPGQAPRLLIYGASSRATGIPDRFSGSGSGTDSTLTISRLEPEDFAVYYCQQPTSSPITFGQGTKVEIK
# notes: human IgG1
# B2: 9D11 IgG (antibody, V domains shown)
# VH: QVQLVQSGAEVKKPGASVKVSCKASGYTFTSYYMHWVRQAPGQGLEWMGIINPSGGPTSYAQKFQGRVTMTRDTSTSTVYMELSSLRSEDTAVYYCARGDFAWLDYWGQGTLVTVSS
# VL: not shown
# notes: human IgG1
# B3: 16D5 D52dE IgG (antibody, V domains shown)
# VH: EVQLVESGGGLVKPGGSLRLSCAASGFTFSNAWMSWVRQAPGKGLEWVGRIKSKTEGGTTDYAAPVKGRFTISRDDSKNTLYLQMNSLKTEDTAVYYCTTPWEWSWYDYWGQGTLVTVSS
# VL: QAVVTQEPSLTVSPGGTVTLTCGSSTGAVTTSNYANWVQEKPGQAFRGLIGGTNKRAPGTPARFSGSLLGGKAALTLSGAQPEDEAEYYCALWYSNLWVFGGGTKLTVL
# notes: IgG
# B4: 16D5 D52dQ IgG (antibody, V domains shown)
# VH: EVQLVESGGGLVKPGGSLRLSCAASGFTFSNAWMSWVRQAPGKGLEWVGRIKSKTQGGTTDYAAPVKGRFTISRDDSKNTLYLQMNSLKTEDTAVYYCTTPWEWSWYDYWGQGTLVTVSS
# VL: B3 VL
# notes: IgG
# Columns and labels:
# [1] = target: T1, human FolR1 expressed on cells (HeLa, SKOV3, HT-29, transfected HEK cells) (human, UniProt P15328 25-234); assay: flow cytometry on HeLa cells
# T1 construct: whole, on cells; also called FolR1 on HeLa cells; human FolR1 on cells
# T1 sequence (P15328 25-234): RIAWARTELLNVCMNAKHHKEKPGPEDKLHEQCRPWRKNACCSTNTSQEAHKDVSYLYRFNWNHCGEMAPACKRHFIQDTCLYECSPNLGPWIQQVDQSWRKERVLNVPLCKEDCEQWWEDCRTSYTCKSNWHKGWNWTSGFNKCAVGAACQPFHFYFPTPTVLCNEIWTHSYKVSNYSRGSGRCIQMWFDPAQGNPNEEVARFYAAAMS
# [2] = target: T2, recombinant biotinylated monomeric Fc fusion of human Folate Receptor 1 (huFolR1 ECD-AcTev-Fcknob-Avi tag … (human, UniProt P0DOX5 223-449 = IgG part, biotin on the C-terminal Avi tag)); assay: SPR Biacore, single injection on immobilized antigen-Fc
# T2 construct: also called huFolR1-Fc; human FolR1-Fc
# Outline: (§1)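 Biacore T200 at 25 °C in HBS-EP (HEPES pH 7.4). Biotinylated FolR-Fc fusions captured on SA chip at about 300-400 RU. IgGs injected once at 500 nM for 60 s to assess cross-reactivity and specificity.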
# [3] = target: T3, recombinant biotinylated monomeric Fc fusion of cynomolgus Folate Receptor 1 (cy FolR1 ECD-AcTev-Fcknob-Avi … (cynomolgus, UniProt P0DOX5 223-449 = IgG part, biotin on the C-terminal Avi tag)); assay: as above
# T3 construct: also called cyFolR1-Fc; cyno FolR1
# Outline: as §1
# [4] = target: T4, recombinant biotinylated monomeric Fc fusion of human Folate Receptor 2 (hu FolR2 ECD-AcTev-Fcknob-Avi tag … (human, UniProt P0DOX5 223-449 = IgG part, biotin on the C-terminal Avi tag)); assay: as above
# T4 construct: also called FolR2-Fc
# Outline: as §1
# [5] = target: T5, recombinant biotinylated monomeric Fc fusion of human Folate Receptor 3 (hu FolR3 ECD-AcTev-Fcknob-Avi tag … (human, UniProt P0DOX5 223-449 = IgG part, biotin on the C-terminal Avi tag)); assay: as above
# T5 construct: also called FolR3-Fc
# Outline: as §1
# [6] = target: T1, human FolR1 expressed on cells (HeLa, …); assay: flow cytometry on transfected HEK cells
# [7] = target: T6, human FolR2 on transfected HEK cells (human, UniProt P14207 17-230); assay: flow cytometry on transfected HEK cells
# T6 construct: whole, on cells
# T6 sequence (P14207 17-230): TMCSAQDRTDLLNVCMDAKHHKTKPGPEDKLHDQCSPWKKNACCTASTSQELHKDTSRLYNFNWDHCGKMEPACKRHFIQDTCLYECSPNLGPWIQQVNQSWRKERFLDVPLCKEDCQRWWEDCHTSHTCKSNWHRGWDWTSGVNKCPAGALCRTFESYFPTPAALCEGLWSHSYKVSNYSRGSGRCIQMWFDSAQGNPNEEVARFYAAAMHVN
# [8] = target: T7, recombinant biotinylated monomeric Fc fusion of murine Folate Receptor 1 (mu FolR1 ECD-AcTev-Fcknob-Avitag … (murine, UniProt P0DOX5 223-449 = IgG part, biotin on the C-terminal Avi tag)); assay: SPR Biacore, single injection on immobilized antigen-Fc
# T7 construct: also called muFolR1-Fc; murine FolR1
# Outline: as §1
# [9] = target: T7, recombinant biotinylated monomeric Fc …; assay: SPR Biacore, avidity set-up, antigen-Fc on SA chip
# Experimental: (§2) The avidity of the interaction between the anti-FolR1 IgGs or T cell bispecifics and the recombinant folate receptors was determined as described below (Table 38).
# (§3) Recombinant biotinylated monomeric Fc fusions of human, cynomolgus and murine Folate Receptor 1 (FolR1-Fc) were directly coupled on a SA chip using the standard coupling instruction (Biacore, Freiburg/Germany). The immobilization level was about 160. The anti-FolR1 IgGs or T cell bispecifics were passed at a concentration range from 3.7 to 900 nM with a flow of 30 μL/minutes through the flow cells over 180 seconds. The dissociation was monitored for 600 seconds. Bulk refractive index differences were corrected for by subtracting the response obtained on reference flow cell immobilized with recombinant biotinylated murine IL2 receptor Fc fusion. The binding curves resulting from the bivalent binding of the IgG or T cell bispecifics were approximated to a 1:1 Langmuir binding (even though it is a 1:2 binding) and fitted with that model to get an apparent KD representing the avidity of the bivalent binding. The apparent avidity constants for the interactions were derived from the rate constants of the fitting using the Bia Evaluation software (GE Healthcare).
# [10] = target: T2, recombinant biotinylated monomeric Fc …; assay: SPR Biacore, affinity (monovalent), antibody captured via anti-Fab
# Experimental: (§4) The affinity of the interaction between the anti-FolR1 IgGs or the T cell bispecifics and the recombinant folate receptors was determined as described below (Table 39).
# (§5) For affinity measurement, direct coupling of around 10000 resonance units (RU) of the anti-human Fab specific antibody (Fab capture kit, GE Healthcare) was performed on a CM5 chip at pH 5.0 using the standard amine coupling kit (GE Healthcare). Anti-FolR1 IgGs or T cell bispecifics were captured at 20 nM with a flow rate of 10 μl/min for 40 sec, the reference flow cell was left without capture. Dilution series (12.35 to 3000 nM) of human and cyno Folate Receptor 1 Fc fusion were passed on all flow cells at 30 μl/min for 240 sec to record the association phase. The dissociation phase was monitored for 300 s and triggered by switching from the sample solution to HBS-EP. The chip surface was regenerated after every cycle using a double injection of 60 sec 10 mM Glycine-HCl pH 1.5. Bulk refractive index differences were corrected for by subtracting the response obtained on the reference flow cell 1. The affinity constants for the interactions were derived from the rate constants by fitting to a 1:1 Langmuir binding using the Bia Evaluation software (GE Healthcare).
# [11] = target: T3, recombinant biotinylated monomeric Fc …; assay: as above
# Experimental: as §4, §5
# [12] = target: T2, recombinant biotinylated monomeric Fc …; assay: SPR Biacore, avidity (bivalent, apparent KD), antigen-Fc on SA chip
# Experimental: as §2, §3
# [13] = target: T3, recombinant biotinylated monomeric Fc …; assay: as above
# Experimental: as §2, §3
binding result [4],binding result [5],binding result [9],Kd [10],koff [10],kon [10],Kd [11],koff [11],kon [11],Kd [12],koff [12],kon [12],Kd [13],koff [13],kon [13],further results,Binder
no binding (tested: 500 nM),no binding (tested: 500 nM),–,–,–,–,–,–,–,–,–,–,–,–,–,binding result [1]: no binding; binding result [2]: no binding (tested: 500 nM); binding result [3]: no binding (tested: 500 nM),B1
no binding (tested: 500 nM),no binding (tested: 500 nM),–,–,–,–,–,–,–,–,–,–,–,–,–,binding result [6]: binds; binding result [7]: no binding; binding result [8]: no binding (tested: 500 nM),B2
–,–,no binding,95 nM,0.00227 s⁻¹,24000 M⁻¹ s⁻¹,530 nM,0.012 s⁻¹,22500 M⁻¹ s⁻¹,3.4 nM,0.000545 s⁻¹,162000 M⁻¹ s⁻¹,2.5 nM,0.00747 s⁻¹,2.98e+06 M⁻¹ s⁻¹,–,B3
–,–,no binding,230 nM,0.00162 s⁻¹,6970 M⁻¹ s⁻¹,410 nM,0.00332 s⁻¹,8200 M⁻¹ s⁻¹,9.2 nM,0.000775 s⁻¹,84000 M⁻¹ s⁻¹,5 nM,0.00204 s⁻¹,412000 M⁻¹ s⁻¹,–,B4
